Experiment: soluble on expression in E. coli; label from the status in PepcDB or PDB records

| Sequence | soluble on expression in E. coli |
| --- | --- |
| MSLEKTKLPWDEFFSLNKDINHTYFTPEDFSGDEDLIAKTTEQFVKQEIVPQMENIEQHNYKVSRQLFEKAGELGLLGIEVPEDYGGFELGKAVSGLVAEKMGYAGAFSVSFNIHAGVGTLPYIYYGTKEQKEKYLPKIASGEWIGAYALTEPNAGSDALSAKTSAVLNEEGTAWKLNGEKQWITNAHMADVYVVFAKTNKGMTAFIVERTCEGVSIGLEEKKMGIKGSSTATLILEDVVIPAENVLGEVGKGHHVALNILNFARLKLAFGNIGTAKQAIGLSVQYGKERKQFQTELVDFTMIQEKIANMIIATYGAESAAYRTAGVIDEAIHESDEDLMKKMSQFAIECALNKVNASETLAYIVDEAVQIHGGYGYMQEYEVERLYRDARISRIFEGTNEINRLTVAKMLMKQIEQLEDTEVESDVANVERNHRYILLAKKLLKQSLKTLSKTPGLKIDQEQEYSRVISNMLTDVYVMESAFLRTRKAVSKNGEEKERTKQLITDVICEEGYRKVEEAAISVLSAAVTEEQDRHVILAEIRQLLVPLYTNVFTKKREIAKAIINRGKYIVEGHHHHHH | soluble |
| MGSEFSIDQKRYLEGFATGVTAARAARGSLPAGSAASPSGPDAIHHQAQDRVTASGKKLNDQEKWKREQHPFDAYARLKQQAKDNAAPKPADNFRWRYYGLFYVAPAQTSYMCRLRIPNGILTSWQMAGLAYLADTLADGYAHVTTRANLQMREIAPKDAVQLLQGIESLGLWARGSGADNIRNVTGSATAGIDPQELIDTRAYARDWHFYILNERALFGLPRKFNVAFDGGGLIPTLEDTNDIAFQAVTIGDGHGVAPGVYFRLALGGITGHKDFARDTGVIVAPDEATEVADAIVRVFIEHGDRTDRNKARLKYVLDAFGFDKYLELVEDKLGRKLIRVPAEAAAPRPAQDRAAHLGVHPQQQAGMNWIGVRLATGHLTSVQMRGLAEIARSFGDGDLRLTVWQNLLISGVPDARVTDATAAIEALGLAITASPLRAGLIACTGASGCRFAAAHTKETAEAIAQYCEPRVPLDTPINIHLTGCHNSCAQHFISDIGLIGAKVAVSDEDSVEGFHIHVGGGFGVDAAIGTEVLRDVKQDDAPRVIERMLQTYLARRASPAETFLAFVRRQDAAALQQLFAYEQSPETVA | not soluble |
| MSLLSGSFLEENMKHLDTYIAFDLEFNTVNDVSHVIQGSAVKYDHHKEVDSFDTYVYTDVPLQSFINGLTGITSNKIAAAPKVEEVMAAFKNFVGELPLIGYNAQKSDLPILAENGLDLRDQYQIDLFDEAYDRRSADLNGIANLRLQTVATFLGIKGRGHNSLEDARMTAAIYESFLETDTNKAYLSQQEEVITDNPFVALGGFFDEGHHHHHH | not soluble |
| MGSDKIHHHHHHMSELTQLFPQPLWQWFAQICAIPHPSKHEQALSLHIQQWAKDKGLSVIEDKVGNLIIKKPAFAGMEDRKKVVLQAHLDMVPQKNADKVHNFETDPIEAYIDGDWVKAKGTTLGSDNGIGMASALAILGSDSIKHGPLEVLLTIDEEAGMTGAFGLEAGMLEAEILINTDSEQEGEIYMGCAGGVDGQISLPMSWQSPEQSNSSFNLTLSGLKGGHSGVNIHLGRGNANKLLARFLFDYADDLALELVSFSGGSLRNAIPREASISFMLPPENLTALNQAIADFQALVREELAIADPGMLLTLVEVPAHTKVMGEDSQNTLIDLLHVCPNGVIRMSDEVEGVTETSLNVGVISTHDDSVEILCLIRSLIDSGRSEVTGMITALTHLAGADVEFSGAYPGWKPDTSSPVMAIVRETYNDIYHKDPTVMVIHAGLECGLFKEPYPAMDMVSIGPTIRYPHSPDEMVNITTVGQYWQLLLAVLERIPVRG | not soluble |
| MSETVYTAKDYKSGQPRWCPGCGDHAFLNSLHKAMAELGVAPHNIAVISGIGCSSRLPYYVNTYGFHTIHGRAAAVATGAKVANPDLTIWQISGDGDGLAIGGNHFIHAVRRNIDLNMILLNNRIYGLTKGQYSPTSDRGFVSKSSPYGTVEDPFHPAELCFGARGRFFARCVAVDGPASVEVLKAAANHKGASVVEVLQNCVIFNDGTHESVATKEGRSKNAIYLEHGKPMLFGENKEFGLMQEGFGLKVVKLGENGVTEKDILIHNAHSMDNTLQLKLALMEGPDFPIALGVIRDVEAPTYNDAVAEQIDEVKAKKKYHNFQELLMTNETWEVK | not soluble |
| MEFVPEQHPPITETTTGAASNGCPVVGHMKYPVEGGGNQDWWPNRLNLKVLHQNPAVADPMGAAFDYAAEVATIDVDALTRDIEEVMTTSQPWWPADYGHYGPLFIRMAWHAAGTYRIHDGRGGAGGGMQRFAPLNSWPDNASLDKARRLLWPVKKKYGKKLSWADLIVFAGNCALESMGFKTFGFGFGRVDQWEPDEVYWGKEATWLGDERYSGKRDLENPLAAVQMGLIYVNPEGPNGNPDPMAAAVDIRETFRRMAMNDVETAALIVGGHTFGKTHGAGPADLVGPEPEAAPLEQMGLGWKSSYGTGTGKDAITSGIEVVWTNTPTKWDNSFLEILYGYEWELTKSPAGAWQYTAKDGAGAGTIPDPFGGPGRSPTMLATDLSLRVDPIYERITRRWLEHPEELADEFAKAWYKLIHRDMGPVARYLGPLVPKQTLLWQDPVPAVSHDLVGEAEIASLKSQIRASGLTVSQLVSTAWAAASSFRGSDKRGGANGGRIRLQPQVGWEVNDPDGDLRKVIRTLEEIQESFNSAAPGNIKVSFADLVVLGGCAAIEKAAKAAGHNITVPFTPGRTDASQEQTDVESFAVLEPKADGFRNYLGKGNPLPAEYMLLDKANLLTLSAPEMTVLVGGLRVLGANYKRLPLGVFTEASESLTNDFFVNLLDMGITWEPSPADDGTYQGKDGSGKVKWTGSRVDLVFGSNSELRALVEVYGADDAQPKFVQDFVAAWDKVMNLDRFDVR | soluble |
| MGHHHHHHSHDGQLFCKKDYWARYGESCHGCSEQITKGLVMVAGELKYHPECFICLTCGTFIGDGDTYTLVEHSKLYCGHCYYQTVVTPVIEQILPDSPGSHLPHTVTLVSIPASSHGKRGLSVSIDPPHGPPGCGTEHSHTVRVQGVDPGCMSPDVKNSIHVGDRILEINGTPIRNVPLDEIDLLIQETSRLLQLTLEHDP | not soluble |
| MKWRCLIYIETRGDILFMTKWFNVGKIVNTHGVRGEIRVISRTDFPEERYKVGNTLYISNEKGTDYLPVKVTSHRQHKTFDLLTFEGYNNVDEVEKFKGSLIKVPEEQLGELAEGEYYYHEIIGCSVVTEEGEALGTIKEILSPGANDVWVIKRPKGQDLLIPYIDDVVLQVNIENKLVTIHVMEGLLLEHHHHHH | soluble |
| MSLKHVIVETEETGYQTRSRVVSVEARTIRVPLERSTAFSTRLVTARDYTVVRVTTADGHYGIGFCYSGNRAGMLVTYAVRELFAPLLLGRSALDVEGSWCAMYDESLLQGRAGSVMRALSILDIALWDRNARATGLPLSRYLGGTCSATVPAYASGGYYLEGKTPEHLGEEMAGYVALGFRAVKMKVGRLDPRSEEARIRAAREAIGDDVLLMLDANNAWSDVPTALEYMRRYEPFNPYWIEEPFSPDDIESHAQLSRRTPVTVATGEIEAGRWRHQELLDKRAALILQSDAAVCGGISEWRRIAASAAAVGVTMCPHWFHDLHVHLVASTTNARYVEFFPDDQVLNFRRLVDTQLSFADGKLTVPTRPGLGFDFDEAALNEYALDDWAEGHHHHHH | not soluble |
| MGHHHHHHSHMTDQTYCDRLVQDTPFLTGHGRLSEQQVDRIILQLNRYYPQILTNKEAEKFRNPKASLRVRLCDLLSHLQRSGERDCQEFYRALYIHAQPLHSRLPSRHALRKFHITNHACLVLARGGHPSLPLMAWMSSMTTQVCCSPGLASPLASAPPQRPPSGPEGRVWQAQAVQMLVSVSHFLPLPPSLSHGSFHTAWGILYVHSCPSFSNLIPRGSLHVCVDSNLVPTAAWRS | not soluble |
| MSKSALDPVEFLKGALEIPSPSGKERAVAEYLAEGMQKLGLKGFVDEADNARGQVGEGPVQVVLLGHIDTVPGQIPVRLEGGRLFGRGAVDAKGPFVAMIFAAAGLSEEARRRLTVHLVGATEEEAPSSKGARFVAPRLKPHYAVIGEPSGWEGITLGYKGRLLVKARREKDHFHSAHHEPNAAEELISYFVAIKAWAEAMNVGQRPFDQVQYTLRDFRVHPAELRQVAEMFFDLRLPPRLPPEEAIRHLTAYAPPTIELEFFGREVPYQGPKDTPLTRAFRQAIRKAGGRPVFKLKTGTSDMNVLAPHWPVPMVAYGPGDSTLDHTPYEHVEVAEFLKGIEVLRGALEALAQTHAGEKEG | soluble |

— the DeepSol protein solubility set
